Experiment: yeast display, Sf9 membrane polyspecificity reagent, FACS + sequencing; frameworks hold sequencing errors
Procedure, shortened: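 A nanobody's polyreactivity label depends on the gate it was sorted from. Yeast display cells were stained with 10% biotinylated, detergent-solubilized Sf9 membrane reagent for 1 hour at 4 °C, enriched on streptavidin microbeads and sorted by FACS. The low and high (top ~1%) gates were set on anti-HA fluorescence for expression and streptavidin fluorescence for reagent binding.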

Row | Sequence | polyreactivity (PSR sort gate)
1 | QVQLVESGGGLVQAGGSLSLSCAASGYTFSYYAMGWYRQAPGKERELVARITYSGGSTYYADSVKGRFTISRDNAKNTGYLQIKSLKPEDTAVYYCAARLRYPYWYYYWGQGTQVTVSS | high polyreactivity
2 | QVQLVESGGGLVQAGGSLSLSCGASGRIFSLYAMGWYRQAPGKERELVAAMSWGAGSTYYADSVKGRFTISRDNAKNTVYLQMNSLKREATAVYYCATGRRYYYPYASYLKYGYWGQGTQVTVSS | high polyreactivity
3 | QVQLVESGGGLVQAGGSLSLSSAASGFIFHTYAMRWYRQAPGKERELVASITWRGGRTYYADSVKGRFTISRDNAKNTVYLQLNSLNPVYTAVYYCAAVTFSYDGYDYWGQGTQVTVSS | low polyreactivity
4 | QVQLVESGGGLVQAGGSLSLSSAASGPIFAYNAMGWYRQAPGKERELVAAISYSGGSTYYADSLKGRFTISRDNAKNTVYIQMNSLKPEDTAVYYCNAVYRYLTYRYDYWGQGTQVTVSS | high polyreactivity
5 | QVQLVESGGGLVQAGGSLSVSCAASGFTFDRYAMGWYRQAPGKERELVAAISGSGDSTFYADSVKGRFTISRDNAKNTVYLQMNSLKPVDTAVYYCNAKRSFRWTYGYWGQGSQVTVSS | high polyreactivity
6 | QVQLVESGGGLVQAGGSPRLSCAASGIIFQHNAMGWYRQAPGKERELVAAISSNGGRTFYADSVKGRFTISRDNAKNTVYLQMNSLKPEDTAVYYCAADRPAYGVGYWGQGTQVTVSS | high polyreactivity
7 | QVQLVESGGGLVQAGGSPRLSCAASGSISNYYGMGWYRQAPRKERELVAAITWGGGRTNYADSVKGRFTISRDNAKNTVYLQMNSLKPEDTAVYYCAKVSVTHRYGAGGDYWGQGTQVTVSS | low polyreactivity
8 | QVQLVESGGGLVQAGGSRLLSCAASGGTFSFYAMGWYRQAPAKEREFVAAITASDGSTYYADSLTGRFTISRDNAKNTVYLQMNSLKPEDTAVYYCAADAYGYKFNSWVQGTQVTVSS | low polyreactivity
9 | QVQLVESGGGLVQAGGSRRIICAASGGTFYYYAMGWYRQAPGKERELVAAITWSGASTRYADSVKGRFTISRDNAKNTVYLQMNSLKPEDTAVYYCAARRVRPLVTYGYWGQGTQLTVSS | high polyreactivity
10 | QVQLVESGGGLVQAGGSRRLICAASGSIFYTNAMGWYRPAPAKERELVARISFSDGTTNYADSVKGRFTISRDNAKNTVYVQMNSLKPEDTAVYYCATDLYGRPVRFDYWGQGTQVTVSS | low polyreactivity
11 | QVQLVESGGGLVQAGGSRRLSCAAAGSTFGVIVMGWYREAPGKEREVVAAITKSGGSTYYADSVKGRFTISRDNAKNTVYLQMNSLKPEDTAVYFCIDAWGREYDYWGQGTQVHVSS | high polyreactivity
12 | QVQLVESGGGLVQAGGSRRLSCAACGFIFEKNAMGWYRQAPGKERELVAAISGGGITNYADSVKGRFTISRDNEKKTVYLHMNSLKPQDTAVYYCAKTRRRLLTRYDYWGQGTQVTVSS | low polyreactivity
13 | QVQLVESGGGLVQAGGSRRLSCAASGRIFLGYTMGWYRQAPGKERELVAAISKSGDSTYYADSVKGRFTISRDNAKNTVYLQMNSLKPEDTAVYYCAAKRYRVGYGYWGQGTQVTVSS | high polyreactivity
14 | QVQLVESGGGLVQAGGSRRLSCAASGRTFWAYAMRCYRQAPGKERELVAAITASGTRTYYADSVKGRFTISRDNAMNTDYLQRNRLKPQDTAGYYCAAERIWWAHAYPTYVANDYWGQGTQGTVSS | high polyreactivity
15 | QVQLVESGGGLVQAGGSRRLSCAASGSIFPQYAMGWYRQAPGKERELVAAITWSGSRTRYADSVKGRFTMSRDTAKNTGYLQMNSLKPEDTAVYDCAARFNGQTYYYWGQGTQVTLSS | high polyreactivity
16 | QVQLVESGGGLVQAGGSRRLSCAASGSIFSQYAMGWYRQAPGKEREFVAAINWSGGRTRYADSVKGRFTISRDNAKNTVYLQMNSLKPEDTAVYYCAKVYSLYSYSGRYDYWGQGTQVTVSS | high polyreactivity
17 | QVQLVESGGGLVQAGGSRRLSCAASGSTFRRYAMGWSRQAPWKERELVAAISGRGGSTSYADSVKGRFTISRDNAKNTVYLQMNSLKPEDTAVYYCNARGYPSRFKYYYWGEGTQVTVSS | high polyreactivity
18 | QVQLVESGGGLVQAGGSRRLSCAASGSTFRYNTMGWYRQAPGKERDLVAAITGGGGSTYYADSVKGRFTISRDNAKNTVYLQMNSLKPEDTAVYYCAKRHWYDCYVSSYTTRYDYWGQGTQVTVSS | low polyreactivity
19 | QVQLVESGGGLVQAGGSRRLSCAASGSTFRYYAMGWYRQAPGKERELVAAISKRGGSTYYADSVKGRFTISRDNAKNTVYLQMNSLKPEDTAVYYCAAYGSVGLEYWGQGTQVTVSS | high polyreactivity
20 | QVQLVESGGGLVQAGGSRRLSCAASGSTFYGYAMGWYRQAPGKEREFVAAITTSGGSTYYADSVKGRFTISRDNAKNTVYLQMNSLKPEDTAVYYCDADAPSWYDRQYDYWGQGTQVTVSS | low polyreactivity
21 | QVQLVESGGGLVQAGGSRRLSCAASGSTFYGYAMGWYRQAPGKERELVAAIRRIGGTTYADSVKGRFTLSRDNAKNTVYLQMNSLKPEDTAVYYCAAYGFSYRYRYYYWGQGTQVTVSS | high polyreactivity

Row | Sequence | polyreactivity (PSR sort gate)
22 | QVQLVESGGGLVQAGGSRRLSCAASGSTFYPYSMGWYRQAPGKESELVAAITWSGGRTYYADSVKGRFTISRDNANNTVYLQMNSLKPEDTAVYYCAADRPDGWVDYWGQGTQVTVSS | low polyreactivity
23 | QVQLVESGGGLVQAGGSRSLSCAASGFTFQGNVMGWYTQAPGKERELVAAISGGGGRTYYADYVKGRFTISRDNAKYTVYLQMNSLIPEDTAVYYCIVRLLGSNRAGVRCDYWGQGTQVTVSS | high polyreactivity
24 | QVQLVESGGGLVQAGGSVRLSCAASGFTFWRYAMGWYRQAPGKEREFVAAITRSGVSTSNADSVKGRFTISRDNAKNTVYLQMNSLKPEDTAVYYCAALFYTSVPYPDYDYWGQGTQVTVSS | high polyreactivity
25 | QVQLVESGGGLVQAGGSVRLSCAASGISFQYNALGWYRQAPGTERELVAGITWSGTSTYFADSVKGRFTISRDNAKNTVYLQLNSMKPEDTAVYYCAAVRGYRGYDYWGQGTQGTVSS | high polyreactivity
26 | QVQLVESGGGLVQAGGSVRLSCAASGRIFGYYAMGWYRQAPGKERELVAAINWNVGSTYYADSVKGRFTISRDNAKNTVYLQMNSLKPEDTAVYYCAAVGRYSRLLGKYDYWGQGTQVTVSS | low polyreactivity
27 | QVQLVESGGGLVQAGGSVRLSCAASGSIFGWYAMGWYRQGPGKEREWVATITDRGGRTYYADSVKGRFTISRDNAKNTVYLQMNSLKPEDTAVYYCAADDCPFEAEYDSWGQGTQVTVSS | low polyreactivity
28 | QVQLVESGGGLVQAGGSVRLSCAASGSTFLHYAMGWYRQPPGKERELVAAITDSGGNTYYADSVKCRFTISRDNAKNTVYLQMNSLKPEDTAVYYCAAEYIFHYYDIFDYWGQGTQVTVSS | high polyreactivity
29 | QVQLVESGGGLVQAGGSVRLSFAASGSSIFGNFMGWYRQAPGKERELVAGITNRGGSTYFADSVKGRFTISRDNAKITVYLQMNSLKPEDTAVYYCAARKNHSGYGRGNYWGQGTQVTVSS | high polyreactivity
30 | QVQLVESGGGLVQAGGTIRLSCAASGIIFRLNPMGWYRQAPGKERELVAAIRRRGGSTYYADSVKGRFTISRDNGKNNVYLQMYSVKPEETEVYHCAKDPHGSDFGYWGQGTHVTVSS | low polyreactivity
31 | QVQLVESGGGLVQAGGTLRFSCAATGSIFDPYARGWYRQAPGKEREFVAAITYTGGDTHYADSVKGRFSISRDKAKNTVYLQLNSLKPEDSAVYYFAAVYYRGIQSYDYWGQGTQVTVSS | low polyreactivity
32 | QVQLVESGGGLVQAGGTLRISCAASGRIFTIYAMGWYRQAPGKERELVATISSNVGSTYYADSVKGRFTISRDNAKNTVYLQMNSLKPEDTAVYYCAATRRAGFTTAKFDYWGQGTQVTVSS | high polyreactivity
33 | QVQLVESGGGLVQAGGTLRISCAASGSIFYLYAMGWYRQAPGKERELVAGIRYRGGSTYYADSVKGRFTISRDNAKNTVYLQMNSLKPEDTAVYYCAAEYGDGRYWSYDYWGQGTQVTVSS | high polyreactivity
34 | QVQLVESGGGLVQAGGTLRLSCAACGRTFPINAMAWYRQAPGKERELVASIRWTDGTTYYADSVKGRFTISRDNAKNTVYLQMNSLKPEDTAVYYCAADAEGSASKYDYWGQGTQVTVSS | low polyreactivity
35 | QVQLVESGGGLVQAGGTLRLSCAASGFTFSSYTVGWYRQAPRKERELVASISSGGSTNYADSVKGRFTISRDNAKNTVYLQMNSLIPEDTAVFYCAAGTPCISFYDVCSGYDYWGQGTQVTVSS | low polyreactivity
36 | QVQLVESGGGLVQAGGTLRLSCAASGLIFFFYAMGWYRQAPGKERELVAAISDDGVSTDYADSVKGRFTISRDNAKNTVYLQMNSLKPEDTAVYYCAAKTERVYPWFSFGYWGQGTQVTVSS | low polyreactivity
37 | QVQLVESGGGLVQAGGTLRLSCAASGLIFGRNAMGWYRQAPGKEREFVATYADSVKGRFTISRYNAKNTVYLQMNSLKPEDTAVYYCATRFVWPSYGYYVQGRFDSWGQGTQVTVSS | low polyreactivity
38 | QVQLVESGGGLVQAGGTLRLSCAASGRIFRENAMGWYRQAPGKERELVAAISSGGSTYYADSVKGRFTISRDNAKNTVYLQMNSLKPEDTAVYYCAADLSWSRVVFGDYDYWGQGTQVTVSS | low polyreactivity
39 | QVQLVESGGGLVQAGGTLRLSCAASGRIFRYNGMGWYRQAPVKERELVAGINWIGGRTYYADSVKGRFTISRDNAKNTVYLQMNSLKPEDTAVYYCAAYWYYIKATTDSDARFDYWGQGTQVTVSS | high polyreactivity
40 | QVQLVESGGGLVQAGGTLRLSCAASGRIFSYNAMGWYRQAPGKERELVAAITWRGGNTYYADSVKGRFTISRDNALNTVYLQMNSLQPEDTAVYYCAAQRGRWAPMYFWGQGTQVTVSS | high polyreactivity
41 | QVQLVESGGGLVQAGGTLRLSCAASGRIFTHNAMGWYRQAPGKERELVAAITSGGRTTYADSVKGRFTISRDNAKNTVYLQMNSLKPEDTAVYYCNADTGLGSLDFDKRDYWGQGTQVNVSS | low polyreactivity

From the nanobody polyreactivity screen of Harvey et al. (2022)
